Results published in US8138151B2, “Peptides” (Faron Ventures Oy, priority 2006, dated 2012).
Entries after “also recorded” stand apart in the source; their conditions may differ.

Key:
[1] = target: T1, purified recombinant VAP-1 (Homo sapiens, UniProt Q16853); test: ELISA binding of biotinylated synthetic peptides to immobilized VAP-1; conditions: wells coated with VAP-1, BSA as negative control; streptavidin-HRP chemiluminescence detection
T1 sequence (Q16853 1-763): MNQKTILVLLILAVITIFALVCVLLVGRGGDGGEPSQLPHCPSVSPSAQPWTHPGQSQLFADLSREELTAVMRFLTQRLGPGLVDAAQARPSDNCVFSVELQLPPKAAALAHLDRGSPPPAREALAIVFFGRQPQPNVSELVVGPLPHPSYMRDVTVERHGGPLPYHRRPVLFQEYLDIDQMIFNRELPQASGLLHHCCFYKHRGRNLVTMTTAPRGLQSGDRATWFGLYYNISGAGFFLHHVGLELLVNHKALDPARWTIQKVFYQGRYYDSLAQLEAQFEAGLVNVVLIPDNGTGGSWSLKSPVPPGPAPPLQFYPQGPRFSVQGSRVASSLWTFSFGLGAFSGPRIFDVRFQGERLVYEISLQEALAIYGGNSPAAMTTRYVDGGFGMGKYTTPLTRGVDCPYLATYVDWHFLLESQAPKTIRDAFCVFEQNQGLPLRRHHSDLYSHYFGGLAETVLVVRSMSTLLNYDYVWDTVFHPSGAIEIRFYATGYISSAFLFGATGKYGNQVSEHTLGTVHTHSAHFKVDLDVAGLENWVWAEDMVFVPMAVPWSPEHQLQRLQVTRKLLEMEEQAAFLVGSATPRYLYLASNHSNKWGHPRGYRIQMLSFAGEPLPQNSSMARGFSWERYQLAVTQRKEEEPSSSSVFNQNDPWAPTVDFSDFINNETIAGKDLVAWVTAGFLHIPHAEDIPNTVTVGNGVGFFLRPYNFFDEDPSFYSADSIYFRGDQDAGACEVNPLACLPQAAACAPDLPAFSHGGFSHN
Protocol: Binding of peptides to VAP-1. VAP-1 and BSA as a negative control were immobilized in wells of Nunc Maxisorp 96-well ELISA plate overnight at 4° C., blocked with PBS/3% BSA for 1 h at 37° C. and incubated with biotinylated peptides (10 micrograms/ml or 100 micrograms/ml) for 2 h at room temperature. The wells were washed with PBS/0.1% Tween, incubated with HRP conjugated streptavidin for 1 h at room temperature and after washing a BM chemiluminescence ELISA substrate was added. Luminescence was measured with a luminometer (Tecan Ultra, Tecan, Zürich, Switzerland).

[2] = target: T2, VAP-1 (SSAO enzymatic activity) (Homo sapiens, UniProt Q16853); test: Isotopic enzyme assay of SSAO activity of VAP-1 (14C-benzylamine, CHO-VAP-1 cell lysate); type: biochemical; conditions: 30 min preincubation with CHO-VAP-1 lysate
T2 construct: expressed in transfected cells; host or cells: CHO cells (CHO-VAP-1)
T2 sequence (Q16853 1-763): T1 sequence (Q16853 1-763)
Protocol: Semicarbazide sensitive mine oxidase (SSAO) enzymatic activity of VAP-1 after interaction with Siglec-10 was determined radiochemically. Briefly, 14-C labeled benzylamine (a model substrate for SSAO) was used as the substrate. The assay was performed at 37° C. for 120 minutes in a final volume of 400 microliters 0.1 mM Krebs-Ringer phosphate glucose buffer (pH 7.35) containing CHO-VAP-1 cell lysate and 5 microM benzylamine with tracer ^14C benzylamine (40 000 dpm) in the presence of 1 mM clorgyline (a MAO inhibitor). In the inhibitory studies, the lysate was preincubated 30 minutes with 10 micrograms/ml or 70 micrograms/ml Siglec-10-Ig-chimera or 1 mM semicarbazide before adding the benzylamine. Catalytic reaction was stopped with citric acid, and the aldehyde reaction products were extracted from the analyzed mixture into toluene containing 0.35 g/L diphenyloxazole. The amount of 14C-labeled benzaldehyde was quantified by scintillation counting using a beta-counter Wallac-1409 (Turku, Finland), and the activity of the enzyme was expressed as picomoles of benzaldehyde formed by milliliter of lysate per hour.

[3] = target: T3, VAP-1 expressed on the cell surface (CHO-VAP-1 cells) (Homo sapiens, UniProt Q16853); test: Epitope analysis: competitive surface staining of CHO-VAP-1 cells with anti-VAP-1 mAb, flow cytometry; type: cell-based; conditions: cells expressing VAP-1 first incubated with 10 micrograms/ml protein, then anti-VAP-1 (JG2.10)
T3 construct: expressed in transfected cells; host or cells: CHO cells (CHO-VAP-1)
T3 sequence (Q16853 1-763): T1 sequence (Q16853 1-763)
Protocol: Surface stainings of CHO-VAP-1 and CHO-mock cells were performed using anti-VAP-1 (JG2.10) and a negative control (9B5) mAbs. Competitive stainings were done in the presence of 10 micrograms/ml either human Ig or Siglec-10-Ig. Alexa546-conjugated goat anti-rat IgG was used as the secondary reagent. All cells were analyzed using FACSCalibur and Cellquest software.

recombinant VAP-1 = target: T4, recombinant VAP-1 (Homo sapiens, UniProt Q16853); test: ELISA binding of Siglec-10-Ig-chimera to recombinant VAP-1; conditions: chimera immobilized via anti-human IgG; VAP-1 detected with biotinylated TK-8-18
T4 sequence (Q16853 1-763): T1 sequence (Q16853 1-763)
Protocol: Siglec 10-Fc chimera binding to VAP-1. Anti-human IgG (Fc specific) antibody was coated onto Nunc Maxisorp wells overnight at 4° C. After blocking with PBS/2% BSA, Siglec-10-Ig-chimera (1 microgram/ml) was immobilized to wells via its Fc-tail for 2 h at room temperature and thereafter, recombinant VAP-1 ([…] incubated in wells for 2 h at room temperature. After washing the wells with PBS/0.1% Tween, biotinylated anti-human VAP-1 antibody (TK-8-18) was incubated in the wells for 1 h at room temperature and after that, the wells were incubated with HRP conjugated streptavidin for 1 h at room temperature. After washing the wells, a BM chemiluminescence ELISA substrate was added to the wells and luminescence was measured with Tecan luminometer.

Substance | Binding of biotinylated synthetic peptide to VAP-1 (ELISA) [1] | also measured
CVKWRGVVVC (Phage display library peptide) [peptide P1] | shown to bind to VAP-1; also recorded: efficiently bound to purified recombinant VAP-1 | 
Siglec-10-Ig-chimera: Siglec-10 fused to an Ig Fc-tail, counter-receptor for VAP-1 |  | Inhibition of SSAO activity of VAP-1 ([2]; 10 μg/ml (~7 nM)): 20%; Inhibition of SSAO activity of VAP-1 ([2]; 70 μg/ml (~50 nM)): 30%; Cells positive for anti-VAP-1 antibody staining [3]: 43.7%; Interaction of Siglec-10-Ig-chimera with purified VAP-1 (ELISA) (recombinant VAP-1): interacts with VAP-1
CATLSWVLQNRVLSSC (listed as Homo sapiens) [P3, longer peptide matching Siglec-10 residues 284-297, cysteines added to both ends] | bound specifically to wells coated with purified VAP-1 in comparison to BSA | 
CWSFRNRVLC (Phage display library peptide) [peptide P2] | shown to bind to VAP-1; also recorded: efficiently bound to purified recombinant VAP-1 | 
CARLSLSWRGLTLCPS (listed as Homo sapiens) [P5] | bound specifically to wells coated with purified VAP-1 in comparison to BSA | 
